Paper PMC9426499

Tested on: ParRB(pJIR4165) (Clostridium perfringens plasmid pJIR4165)
Test: SPR

Point of comparison: “TTTATTAATTTCACTATATGTATATACTGA / TCAGTATATACATATAGTGAAATTAATAAACCTACCCTACGTCCTCCTGC [parCB B1]”, binding signal 58 RU. Against it:
- AGGTATAAACTCAGTATATACATGATTGAA / TTCAATCATGTATATACTGAGTTTATACCTCCTACCCTACGTCCTCCTGC [parCB B17] — higher, 368 RU
- TAGTATATATCTAGTATATACTAAATTTAT / ATAAATTTAGTATATACTAGATATATACTACCTACCCTACGTCCTCCTGC [parCB B21] — higher, 377 RU
- TCACTATATGTATATACTGAATATATACAT / ATGTATATATTCAGTATATACATATAGTGACCTACCCTACGTCCTCCTGC [parCB B2] — higher, 383 RU

Tested on: ParRC(pCW3) (Clostridium perfringens plasmid pCW3)
Test: SPR

Point of comparison: “AAAAAACATCACAATTTTACATAATAGAAA / TTTCTATTATGTAAAATTGTGATGTTTTTTCCTACCCTACGTCCTCCTGC [parCC C16]”, binding signal 311 RU. Against it:
- AAAATGAAAAAAACATCACAATTTTACGGA / TCCGTAAAATTGTGATGTTTTTTTCATTTTCCTACCCTACGTCCTCCTGC [parCC C5] — lower, 249 RU
- AAACATCACAATTTTACGGAAAATGCTTGA / TCAAGCATTTTCCGTAAAATTGTGATGTTTCCTACCCTACGTCCTCCTGC [parCC C6] — lower, 282 RU
- AATATAAAAACATAAACATCACAATTTTAC / GTAAAATTGTGATGTTTATGTTTTTATATTCCTACCCTACGTCCTCCTGC [parCC C11] — lower, 154 RU
- AATTAAAAACATCACAATTTTACGTAATGA / TCATTACGTAAAATTGTGATGTTTTTAATTCCTACCCTACGTCCTCCTGC [parCC C1] — lower, 256 RU
- ACAATTTTACGTAATTTAGATTTTGCAAGT / ACTTGCAAAATCTAAATTACGTAAAATTGTCCTACCCTACGTCCTCCTGC [parCC C13] — lower, 48 RU
- ATCACAATTTTACGTAATGACAGTTTGTTG / CAACAAACTGTCATTACGTAAAATTGTGATCCTACCCTACGTCCTCCTGC [parCC C2] — lower, 54 RU
- ATTTTACGGAAAATGCTTGATTTAGATTGA / TCAATCTAAATCAAGCATTTTCCGTAAAATCCTACCCTACGTCCTCCTGC [parCC C7] — lower, 9 RU
- CATAAACATCACAATTTTACGTAATTTAGA / TCTAAATTACGTAAAATTGTGATGTTTATGCCTACCCTACGTCCTCCTGC [parCC C12] — higher, 348 RU
- GTAATTTAGATTTTGCAAGTAAAAAACATC / GATGTTTTTTACTTGCAAAATCTAAATTACCCTACCCTACGTCCTCCTGC [parCC C14] — lower, 42 RU
- TTTATTAATTTCACTATATGTATATACTGA / TCAGTATATACATATAGTGAAATTAATAAACCTACCCTACGTCCTCCTGC [parCB B1] — lower, -2.8 RU
- TTTTGCAAGTAAAAAACATCACAATTTTAC / GTAAAATTGTGATGTTTTTTACTTGCAAAACCTACCCTACGTCCTCCTGC [parCC C15] — lower, 217 RU

Tested on: ParRD(pJIR3118) (Clostridium perfringens plasmid pJIR3118 (CN1020 gDNA))
Test: SPR

Point of comparison: “AGGTTATTTAATGTTAAATGATATTAAATA / TATTTAATATCATTTAACATTAAATAACCTCCTACCCTACGTCCTCCTGC [parCD D9]”, binding signal 213 RU. Against it:
- AAATAATATCAAATAATATTATTTAATGTC / GACATTAAATAATATTATTTGATATTATTTCCTACCCTACGTCCTCCTGC [parCD D4] — higher, 232 RU
- ACATTAAAAGATACTAATTAATATTATTTA / TAAATAATATTAATTAGTATCTTTTAATGTCCTACCCTACGTCCTCCTGC [parCD D12] — higher, 250 RU
- ATACTAATTAATATTATTTAATTATTGACT / AGTCAATAATTAAATAATATTAATTAGTATCCTACCCTACGTCCTCCTGC [parCD D13] — lower, 187 RU
- ATATTAAATAACATTAAAAGATACTAATTA / TAATTAGTATCTTTTAATGTTATTTAATATCCTACCCTACGTCCTCCTGC [parCD D11] — higher, 236 RU
- ATGTTAAATGATATTAAATAACATTAAAAG / CTTTTAATGTTATTTAATATCATTTAACATCCTACCCTACGTCCTCCTGC [parCD D10] — higher, 270 RU
- GAATAATATTAAATAATATCAAATAATATT / AATATTATTTGATATTATTTAATATTATTCCCTACCCTACGTCCTCCTGC [parCD D3] — higher, 225 RU
- TTTATTAATTTCACTATATGTATATACTGA / TCAGTATATACATATAGTGAAATTAATAAACCTACCCTACGTCCTCCTGC [parCB B1] — lower, 1.1 RU
